The term EC50 denotes the concentration giving half of the maximal effect.

The values below come from publication PMC4497658.

This assay concerns the target IFNAR receptors (IFNAR1 and IFNAR2) on WISH cells (human (endogenous in WISH)) (UniProt P17181). Kind of assay: radioligand binding; in situ competition on WISH cells: ^125I-labeled wild type IFNα2 (200,000 cpm/well) with unlabeled IFN at ten concentrations (4-fold steps from 200 nM for the antagonists, 10 nM for IFNα2-α8tail), 1 hr at room temperature, culture medium + 0.1% sodium azide.
Regarding “IFN-1ant (IFNα2 R120E with the α8-tail) (ligand)”, the EC50 was 500 pM.

IFN-1ant_(Y85M) (ligand): the half-maximal effective concentration (EC50) is 800 pM.

As to IFN-1ant_(N65A) (ligand), the concentration giving a half-maximal response (EC50) came out at 1700 pM.

With IFN-1ant_(Y85A) (ligand), the EC50 worked out at 2000 pM.

As for IFNα2-α8tail (ligand), the half-maximal effective concentration (EC50) was 150 pM.

In the case of “YNS (IFNα2 N57Y, E58N and Q61S) (ligand)”, the EC50 amounted to 1 pM.
